# Experimental data reported in paper PMC13544220, “Glycemic and bodyweight effects of GIPR coding variation reflect differences in surface expression and intrinsic functional impairment” (Science Advances, 2026).
# Substitutions are numbered along the chain they refer to. In names and notes the source's numbering stands.
# B1: I403V (protein, UniProt P48546 22-466, looked up, variant I403V)
# Gastric inhibitory …: RAETGSKGQTAGELYQRWERYRRECQETLAAAEPPSGLACNGSFDMYVCWDYAAPNATARASCPWYLPWHHHVAAGFVLRQCGSDGQWGLWRDHTQCENPEKNEAFLDQRLILERLQVMYTVGYSLSLATLLLALLILSLFRRLHCTRNYIHINLFTSFMLRAAAILSRDRLLPRPGPYLGDQALALWNQALAACRTAQIVTQYCVGANYTWLLVEGVYLHSLLVLVGGSEEGHFRYYLLLGWGAPALFVIPWVIVRYLYENTQCWERNEVKAIWWIIRTPILMTILINFLIFIRILGILLSKLRTRQMRCRDYRLRLARSTLTLVPLLGVHEVVFAPVTEEQARGALRFAKLGFEIFLSSFQGFLVSVLYCFINKEVQSEVRRGWHHCRLRRSLGEEQRQLPERAFRALPSGSGPGEVPTSRGLSSGTLPGPGNEASRELESYC
# B2: R336P (protein, UniProt P48546 22-466, looked up, variant R336P)
# Gastric inhibitory …: B1 Gastric inhibitory … with R315P, V382I
# Experiments:
# Assay type in all cases: cell-based, human
# [1] = test system: wild-type and variant SNAP-GIPR; test: Surface SNAP-GIPR expression (SNAP-tag labelling) in AD293 cells; conditions: for AD293 Surface: Fig S3E, mean; for Surface SNAP-GIPR expression: sheet Fig 1C;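 on all read-outs here: scaled to the experimental average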
# Procedure, shortened: (§1)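 Read-out: whole-cell fluorescence of surface-only SNAP label (Alexa Fluor 647, 500 nM, 10 min, RT), wide-field 20X, several FOVs per well. Flat-field corrected, phase-contrast masked, nontransfected-well signal subtracted; normalized to experiment mean or wild-type.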
# [2] = test system: wild-type and variant SNAP-GIPR; test: Surface SNAP-GIPR expression (SNAP-tag labelling) in INS-1 cells; conditions: Fig 4G; Mean
# Procedure, shortened: as §1
# [3] = test system: wild-type and variant SNAP-GIPR; test: Single-concentration GIP cAMP response by HTRF in AD293 cells; conditions: Fig S3F, HTRF, mean;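 further: ratio to experiment-wide average response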
# Experimental: (§2) All variants were tested in parallel on each occasion to control for transfection efficiency differences between experiments.
# [4] = test system: wild-type and variant SNAP-GIPR; test: Single-concentration GIP cAMP response by HTRF in INS-1 cells; conditions: Fig S3E, mean
# Experimental: as §2
# [5] = test system: wild-type and variant SNAP-GIPR; test: cADDis cAMP imaging in AD293 cells, ensemble, expression-matched and per decile; conditions: Fig S3F, cADDis, mean;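 further: Ensemble cells as % of IBMX/FSK response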
# Procedure, shortened: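 AD293 cells reverse-transfected with wild-type or variant SNAP-GIPR plus cADDis Green Up sensor, variants run in parallel. After 24 h, surface receptor labelled with SNAP-Surface Alexa Fluor 647 (500 nM); single-cell cADDis fluorescence imaged at 37 °C in KRBH, 6 mM glucose, 0.1% BSA. Responses given ensemble, expression-matched by wild-type deciles, or per own decile.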
# [6] = test system: wild-type and variant SNAP-GIPR; test: Constitutive and agonist-mediated internalization, reversible SNAP-tag labelling, AD293 cells; design: key to Internalisation, Vehicle / Internalisation, +GIP / Internalisation, GIP-only: % internalization: residual fluorescence after Mesna vs pre-Mesna; Surface expression: unit not given here; conditions: Mean; for +GIP internalisation (100 nM) / GIP-specific internalisation (100 nM) / Constitutive internalisation (100 nM) / Surface expression: Fig 4E; for +GIP internalisation (100 nM) / GIP-specific internalisation (100 nM): GIP 100 nM; for Internalisation, +GIP / Internalisation, GIP-only / Internalisation, Vehicle: Fig S4C, AD293
# Procedure, shortened: (§3)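 Percentage internalization is read as the fraction of specific SNAP fluorescence that survives Mesna stripping, compared with the image taken before Mesna. Wells are imaged in TNE buffer at pH 8.6 and again after 10 min.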
# [7] = test system: wild-type and variant SNAP-GIPR; test: Constitutive and agonist-mediated internalization, reversible SNAP-tag labelling, INS-1 cells; design: key to Internalisation, GIP-only / Internalisation, Vehicle / Internalisation, +GIP: % internalization: residual fluorescence after Mesna vs pre-Mesna; conditions: Mean; for +GIP internalisation (100 nM) / GIP-specific internalisation (100 nM) / Constitutive internalisation (100 nM): Fig 4G; for +GIP internalisation (100 nM) / GIP-specific internalisation (100 nM): GIP 100 nM; for Internalisation, +GIP / Internalisation, GIP-only / Internalisation, Vehicle: Fig S4C, INS-1
# Procedure, shortened: as §3
# [8] = column repeated, paired with cAMP 100 nM
molecule,measurement,setting,value
B1,AD293 Surface,[1]; [8],1.077
same,AD293 Surface,[1]; paired with cAMP 100 pM,1.077
same,Surface SNAP-GIPR expression,[1]; replicate 1,1.081
same,Surface SNAP-GIPR expression,[1]; replicate 2,1.363
same,Surface SNAP-GIPR expression,[1]; replicate 3,0.2202
same,Surface SNAP-GIPR expression,[1]; replicate 4,1.549
same,Surface SNAP-GIPR expression,[1]; replicate 5,1.258
same,Surface SNAP-GIPR expression,[1]; replicate 6,1.264
same,Surface SNAP-GIPR expression,[1]; replicate 7,0.985
same,Surface SNAP-GIPR expression,[1]; replicate 8,0.9444
same,Surface SNAP-GIPR expression,[1]; replicate 9,1.045
same,Surface SNAP-GIPR expression,[1]; replicate 10,1.237
same,Surface SNAP-GIPR expression,[1]; replicate 11,0.9384
same,Surface SNAP-GIPR expression,[1]; replicate 12,0.958
same,Surface SNAP-GIPR expression,[1]; replicate 13,1.387
same,Surface SNAP-GIPR expression,[1]; replicate 14,1.061
same,Surface SNAP-GIPR expression,[1]; replicate 15,1.05
same,Surface SNAP-GIPR expression,[1]; replicate 16,0.9753
same,Surface SNAP-GIPR expression,[1]; replicate 17,1.072
same,Surface SNAP-GIPR expression,[1]; replicate 18,0.9656
same,Surface SNAP-GIPR expression,[1]; replicate 19,0.8084
same,Surface SNAP-GIPR expression,[1]; replicate 20,1.091
same,Surface SNAP-GIPR expression,[1]; replicate 21,0.9955
same,Surface SNAP-GIPR expression,[1]; replicate 22,1.089
same,Surface SNAP-GIPR expression,[1]; replicate 23,1.06
same,Surface SNAP-GIPR expression,[1]; replicate 24,1.048
same,Surface SNAP-GIPR expression,[1]; replicate 25,0.9764
same,Surface SNAP-GIPR expression,[1]; replicate 26,0.8875
same,Surface SNAP-GIPR expression,[1]; replicate 27,0.9058
same,Surface SNAP-GIPR expression,[1]; replicate 28,1.123
same,Surface SNAP-GIPR expression,[1]; replicate 29,1.103
same,Surface SNAP-GIPR expression,[1]; replicate 30,1.39
same,Surface SNAP-GIPR expression,[1]; replicate 31,1.166
same,Surface SNAP-GIPR expression,[1]; replicate 32,1.223
same,Surface SNAP-GIPR expression,[1]; replicate 33,1.12
same,Surface SNAP-GIPR expression,[1]; replicate 34,1.156
same,Surface SNAP-GIPR expression,[1]; replicate 35,1.076
same,Surface SNAP-GIPR expression,[1]; replicate 36,1.273
same,Surface SNAP-GIPR expression,[1]; replicate 37,1.139
same,Surface SNAP-GIPR expression,[1]; replicate 38,1.049
same,Surface SNAP-GIPR expression,[1]; replicate 39,1.042
same,Surface SNAP-GIPR expression,[1]; replicate 40,1.006
same,Surface SNAP-GIPR expression,[1]; replicate 41,1.094
same,Surface expression,[2],1.09
same,AD293 100 pM HTRF,[3],1.267
same,AD293 100 nM HTRF,[3],1.595
same,INS-1 cAMP (100 nM),[4],1.36
same,AD293 100 pM cADDis,[5],32.3253
same,AD293 100 nM cADDis,[5],38.62
same,+GIP internalisation (100 nM),[6],0.6419
same,GIP-specific internalisation (100 nM),[6],0.176
same,Constitutive internalisation (100 nM),[6],0.4659
same,Surface expression,[6],1.133
same,"Internalisation, +GIP",[6],57.0289
same,"Internalisation, GIP-only",[6],15.5744
same,"Internalisation, Vehicle",[6],41.4545
same,+GIP internalisation (100 nM),[7],0.5388
same,GIP-specific internalisation (100 nM),[7],0.1314
same,Constitutive internalisation (100 nM),[7],0.4074
same,"Internalisation, +GIP",[7],49.7833
same,"Internalisation, GIP-only",[7],12.345
same,"Internalisation, Vehicle",[7],37.4383
B2,AD293 Surface,[1]; [8],0.9922
same,AD293 Surface,[1]; paired with cAMP 100 pM,0.9922
same,Surface SNAP-GIPR expression,[1]; replicate 1,1.065
same,Surface SNAP-GIPR expression,[1]; replicate 2,0.5013
same,Surface SNAP-GIPR expression,[1]; replicate 3,1.132
same,Surface SNAP-GIPR expression,[1]; replicate 4,0.7089
same,Surface SNAP-GIPR expression,[1]; replicate 5,1.372
same,Surface SNAP-GIPR expression,[1]; replicate 6,0.9533
same,Surface SNAP-GIPR expression,[1]; replicate 7,1.085
same,Surface SNAP-GIPR expression,[1]; replicate 8,0.9069
same,Surface SNAP-GIPR expression,[1]; replicate 9,0.9059
same,Surface SNAP-GIPR expression,[1]; replicate 10,0.7148
same,Surface SNAP-GIPR expression,[1]; replicate 11,1.055
same,Surface SNAP-GIPR expression,[1]; replicate 12,1.013
same,Surface SNAP-GIPR expression,[1]; replicate 13,0.7103
same,Surface SNAP-GIPR expression,[1]; replicate 14,1.142
same,Surface SNAP-GIPR expression,[1]; replicate 15,0.8074
same,Surface SNAP-GIPR expression,[1]; replicate 16,0.9322
same,Surface SNAP-GIPR expression,[1]; replicate 17,0.8667
same,Surface SNAP-GIPR expression,[1]; replicate 18,1.004
same,Surface SNAP-GIPR expression,[1]; replicate 19,0.9824
same,Surface SNAP-GIPR expression,[1]; replicate 20,1.058
same,Surface SNAP-GIPR expression,[1]; replicate 21,0.9727
same,Surface SNAP-GIPR expression,[1]; replicate 22,0.8965
same,Surface SNAP-GIPR expression,[1]; replicate 23,0.778
same,Surface SNAP-GIPR expression,[1]; replicate 24,0.7544
same,Surface SNAP-GIPR expression,[1]; replicate 25,1.062
same,Surface SNAP-GIPR expression,[1]; replicate 26,1.025
same,Surface SNAP-GIPR expression,[1]; replicate 27,0.9727
same,Surface SNAP-GIPR expression,[1]; replicate 28,0.7869
same,Surface SNAP-GIPR expression,[1]; replicate 29,1.148
same,Surface SNAP-GIPR expression,[1]; replicate 30,1.341
same,Surface SNAP-GIPR expression,[1]; replicate 31,1.222
same,Surface SNAP-GIPR expression,[1]; replicate 32,1.042
same,Surface SNAP-GIPR expression,[1]; replicate 33,1.006
same,Surface SNAP-GIPR expression,[1]; replicate 34,0.7344
same,Surface SNAP-GIPR expression,[1]; replicate 35,1.077
same,Surface SNAP-GIPR expression,[1]; replicate 36,1.167
same,Surface SNAP-GIPR expression,[1]; replicate 37,1.212
same,Surface SNAP-GIPR expression,[1]; replicate 38,1.22
same,Surface SNAP-GIPR expression,[1]; replicate 39,1.259
same,Surface SNAP-GIPR expression,[1]; replicate 40,1.054
same,Surface SNAP-GIPR expression,[1]; replicate 41,1.032
same,Surface expression,[2],0.9442
same,AD293 100 pM HTRF,[3],1.285
same,AD293 100 nM HTRF,[3],1.143
same,INS-1 cAMP (100 nM),[4],0.7986
same,AD293 100 pM cADDis,[5],30.0491
same,AD293 100 nM cADDis,[5],33.63
same,+GIP internalisation (100 nM),[6],0.6438
same,GIP-specific internalisation (100 nM),[6],0.1531
same,Constitutive internalisation (100 nM),[6],0.4907
same,Surface expression,[6],1.092
same,"Internalisation, +GIP",[6],55.5681
same,"Internalisation, GIP-only",[6],13.0056
same,"Internalisation, Vehicle",[6],42.5625
same,+GIP internalisation (100 nM),[7],0.578
same,GIP-specific internalisation (100 nM),[7],0.1817
same,Constitutive internalisation (100 nM),[7],0.3963
same,"Internalisation, +GIP",[7],55.395
same,"Internalisation, GIP-only",[7],16.7483
same,"Internalisation, Vehicle",[7],38.6467
